This is an account of results in patent US20040013664A1.

The test concerns the target Fas receptor on human cells (Jurkat, HT-29) (human) (UniProt P25445). Description: cell-based or functional assay.

Sequence of Fas receptor on human cells (Jurkat, HT-29) (human) (P25445 26-335): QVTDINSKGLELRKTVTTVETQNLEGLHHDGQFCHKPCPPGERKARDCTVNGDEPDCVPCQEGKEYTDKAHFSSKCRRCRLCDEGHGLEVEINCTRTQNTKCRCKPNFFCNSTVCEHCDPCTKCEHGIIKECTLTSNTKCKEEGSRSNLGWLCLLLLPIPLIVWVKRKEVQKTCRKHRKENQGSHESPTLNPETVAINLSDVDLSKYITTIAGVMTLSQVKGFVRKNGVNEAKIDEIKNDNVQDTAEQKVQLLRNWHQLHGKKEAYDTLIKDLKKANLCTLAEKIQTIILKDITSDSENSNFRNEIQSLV

For the substance “sFas ligand (Alexis Corporation, FLAG epitope tag at its N-terminus) (from UniProt P48023 103-281)”, the % Cells undergoing apoptosis (Jurkat, annexin/propidium iodide FACS); FasL (20 ng) turned out to be 8.87% and the decrease in Jurkat cell viability (ALOMAR blue) is 50%.
